Laboratory results taken from patent US20100137208A1, “INTRATUMORALLY ADMINISTERED LACTOFERRIN IN THE TREATMENT OF MALIGNANTNEOPLASMS AND OTHER HYPERPROLIFERATIVE DISEASES” (priority 2002, published 2010).

Tested on: IL-18
Assay: IL-18 levels in small intestine and serum after oral rhLF or bLF (ELISA)
Format: in vivo, mice
Experimental: Recombinant human lactoferrin and bovine lactoferrin were orally administered to mice, and the production of IL-18 in the small intestine was measured.
Mice were treated for three days daily with 65 mg/kg/day of rhLF, 300 mg/kg/day of rhLF or 300 mg/kg/day of bLF. For a control, mice were only administered the pharmaceutical carrier. Twenty-four hours following administration of the LF or control for 3 days, animals were weighed and blood and serum were collected. Serum was used for cytokine ELISA assays.
Also, at these time points, animals were sacrificed and the small intestinal tissue was removed for further analysis. Small intestinal epithelium was homogenized using a lysis buffer consisting of PBS, 1% Nonidet P-40, 0.5% sodium deoxycholate, and 0.1% sodium dodecyl sulphate containing 10 μg/ml PhenylMetheylsulfonyl fluoride. Homogenate was centrifuged at 15,000 rpm for 10 minutes and the supernatant stored at −80 C till it was tested for IL-18 levels.

[1] = oral 300 mg/kg/day for three days
[2] = oral 300 mg/kg/day for three days, 24 h after last dose

B1: bLF: bovine lactoferrin, orally administered comparator (protein, UniProt P24627 20-708, looked up)
Lactotransferrin: APRKNVRWCTISQPEWFKCRRWQWRMKKLGAPSITCVRRAFALECIRAIAEKKADAVTLDGGMVFEAGRDPYKLRPVAAEIYGTKESPQTHYYAVAVVKKGSNFQLDQLQGRKSCHTGLGRSAGWIIPMGILRPYLSWTESLEPLQGAVAKFFSASCVPCIDRQAYPNLCQLCKGEGENQCACSSREPYFGYSGAFKCLQDGAGDVAFVKETTVFENLPEKADRDQYELLCLNNSRAPVDAFKECHLAQVPSHAVVARSVDGKEDLIWKLLSKAQEKFGKNKSRSFQLFGSPPGQRDLLFKDSALGFLRIPSKVDSALYLGSRYLTTLKNLRETAEEVKARYTRVVWCAVGPEEQKKCQQWSQQSGQNVTCATASTTDDCIVLVLKGEADALNLDGGYIYTAGKCGLVPVLAENRKSSKHSSLDCVLRPTEGYLAVAVVKKANEGLTWNSLKDKKSCHTAVDRTAGWNIPMGLIVNQTGSCAFDEFFSQSCAPGADPKSRLCALCAGDDQGLDKCVPNSKEKYYGYTGAFRCLAEDVGDVAFVKNDTVWENTNGESTADWAKNLNREDFRLLCLDGTRKPVTEAQSCHLAVAPNHAVVSRSDRAAHVKQVLLHQQALFGKNGKNCPDKFCLFKSETKNLLFNDNTECLAKLGGRPTYEEYLGTEYVTAIANLKKCSTSPLLEACAFLTR
Oral 300 mg/kg/day
  serum levels of IL-18 (in words): did not increase
[1]
  IL-18 Intestinal Extract % Increase Over Control: 373%
  IL-18 Serum % Increase Over Control: −5%
[2]
  IL-18 level, Intestinal Extract: 4,515 pg
  IL-18 level, Serum: 134 pg
Oral 300 mg/kg/day, compared with rhLF
  intestinal IL-18 levels (in words): lesser increase
